Experimental data: the nanobody polyreactivity screen of Harvey et al. (2022)

assay: yeast display, Sf9 membrane polyspecificity reagent, FACS + sequencing; frameworks hold sequencing errors
In short: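 Synthetic nanobody libraries on Saccharomyces cerevisiae BJ5465 were galactose-induced for 36–48 hours, stained 1 hour at 4 °C with 10% biotinylated, detergent-solubilized Sf9 membrane reagent and enriched on streptavidin microbeads. FACS then separated cells into low and high (top ~1%) gates by anti-HA (expression) and streptavidin (reagent binding) fluorescence. Genes were colony-PCR amplified, MiSeq 2 × 250 sequenced and CDR-length filtered. A clone's polyreactivity label is that of its gate of origin.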

Sequence | polyreactivity (PSR sort gate)
QVQLVESGGGLVQAGGSLRLSCAASGRTFYTVYAMGWYRQAPGKERELVAAITKDGTTTYYADSVKGRFTISRDNAKNTVYLQMNSLKPEDTAVYYCNADVCQPWGGGEYNYWGQGTQVTVSS | high polyreactivity
QVQLVESGGGLVQAGGSLRLSCAASGRTFYVNAMGWYRQAPGKEREFVATITRTGGDTYYADSVKGRFTISRDNAKNTVYLQMNSHKPEDTAVFYCNAEGYTVKYWYSRYDYWGQGTQVTVSS | high polyreactivity
QVQLVESGGGLVQAGGSLRLSCAASGRTFYVNAMGWYRQAPGKERELVAAIRYSDGRTYYADSVKGRFTISRDNAKNTVYLQMNSLKPEDTAVYYCAVGSRSWPYDYWGQGTQVTVSS | high polyreactivity
QVQLVESGGGLVQAGGSLRLSCAASGRTFYVYAMGWYRHAPGKERELVASIRRSGGITYYADSVKGRFTISRDNAKNTVYLQMNSLKPEDTAVYYCNARRGPGRREYDYWGQGTQVTLSS | high polyreactivity
QVQLVESGGGLVQAGGSLRLSCAASGRTFYVYAMGWYRQAPGKERELVAAISQDDGGTYYADSVKGRFTISRDNAKNTVYLQMNSLKPEDTAVYYCAAKEWRYGYDYGYWGQGTQVTLSS | low polyreactivity
QVQLVESGGGLVQAGGSLRLSCAASGRTFYVYAMGWYRQAPGKERELVASISWIGDDTYYADSVKGRFTISRDNAKNTVYLQMNSLKPEDTAVYYCAVLVLGDYGYEYWGQGTQVTVSS | high polyreactivity
QVQLVESGGGLVQAGGSLRLSCAASGRTFYVYDMGWYRQAPGKERELVAAISTNYADSVKGRFTISRDNAKNTVYLQMNSLNPEDTAVYYCAADDIHYVIHAYYSSGVDYWGQGTQVTVSS | low polyreactivity
QVQLVESGGGLVQAGGSLRLSCAASGRTFYVYDMGWYRQAPRKEREFVATITARGGSTSYADSVKGRFTISRDNAKNTVYLQMNILKPEDTAVYYCNADIHVYPTRTRYYYWGQGTQVTVSS | low polyreactivity
QVQLVESGGGLVQAGGSLRLSCAASGRTFYVYTMGWYRQAPGKERELVAAITTGGSTNYADSVKGRFTISRDNAKNTVYLQMNSLKPEDTAVYYCAARVSTVFKRYYYWGQGTQVTVSS | high polyreactivity
QVQLVESGGGLVQAGGSLRLSCAASGRTFYVYTMGWYRQAPGKERELVAANTSGGSTNYADSVKGRFTISRDNAKNTVYLQMNSLKPEDTAVYYCAARVSTVFKRYYYWGQGTQVTVSS | high polyreactivity
QVQLVESGGGLVQAGGSLRLSCAASGRTFYWYAMGWYRQAPGKERELVAAISSGGSTYYADSVKGRFTISRDNAKNTVYLQMNSLKPEDTAVYYCAAVTPSGAHRSAYHPISDYWGQGTQVTVSS | low polyreactivity
QVQLVESGGGLVQAGGSLRLSCAASGRTFYYAMGWYRQAPGKERYADSVKGRVTISRDNAKNTVYLQMNSLKPEETAVYYCAAKVPEPPSLDESDYWGQGTQVTVSS | low polyreactivity
QVQLVESGGGLVQAGGSLRLSCAASGRTFYYNAKGWYRQAPGKERELVARITSSGGSTYYADSVKGRFTISRDTSKNTVFLQMNSLKPEDTAVYYCAAGRSRYLWFGRDFDYWGQGTQVTVSS | low polyreactivity
QVQLVESGGGLVQAGGSLRLSCAASGRTFYYNGMGWYRQAPGKERELVATITNGGSTNYADSVKGRFTISRDNAKITVYLQMNSLKPEETAVYYCAKTLASDCYDYWGQGTQVTVSS | low polyreactivity
QVQLVESGGGLVQAGGSLRLSCAASGRTFYYYAMGWYRQAPGKERELVAAISRSGGITYYADSVKGRFTISRDNAKNTVYLQMNSLKPEDTAVYYCAADAWFSLRYAPRSYAYGYWGQGTQVTVSS | low polyreactivity
QVQLVESGGGLVQAGGSLRLSCAASGRTFYYYAMGWYRQAPGKERELVAAITGSGANTYYADSVKGRFTISRDNAKNTVYLQMKSLKPEDTAVYYCNKYRTLRNGWGSGYYYWGQGTQVTVSS | high polyreactivity
QVQLVESGGGLVQAGGSLRLSCAASGRTFYYYAMGWYRQAPGKERELVAGINSGGSTNYADSVKGRFTISRDNAKNTVYLQMNSLKPEDTAVYYCAVEDLVSEGWGWYKEMDYWGQGTQVTVSS | low polyreactivity
QVQLVESGGGLVQAGGSLRLSCAASGRTFYYYAMGWYRQAPGKERELVARIRSTGRTSYADSVKGRFTISRDNAKNTVYLQMNRLKPEDTAVYYCAAKYSSTAWSRRKFDYWGQGTQVTVSS | high polyreactivity
QVQLVESGGGLVQAGGSLRLSCAASGRTFYYYAMGWYRQAPGKERELVASISRRGGSTYYADSVKGRFTISRDNAKNTVYLQMNSLKPEDTAVYYCAASHYHGYSLGYDYWGQGTQVTVSS | high polyreactivity
QVQLVESGGGLVQAGGSLRLSCAASGRTFYYYAMGWYRQAPGKERELVATITSSGGSTYYADSVKGRFTISRDNAKNTVYLQINSLIPEDTAVYYCARTYTYKGGNTHSRWYYYWGQGTHVTVSS | high polyreactivity

Sequence | polyreactivity (PSR sort gate)
QVQLVESGGGLVQAGGSLRLSCAASGRTFYYYAMGWYRQAPGKEWELVAAIRGGGGSTYADSVKGRFTISRDNAKNTVYLQMNSLKPEDTAVYYCNVVRTGRYPGFLTFDYWGQGTQVTVSS | high polyreactivity
QVQLVESGGGLVQAGGSLRLSCAASGRTFYYYAMGWYRQAPGTERELLAAISWSVGRTYYADSVKGRFTISRDNAKNTVYLQMNSLKPEDTAVYFCNAEPPRGYTVSSGREMVYWGQGTQVTGSS | low polyreactivity
QVQLVESGGGLVQAGGSLRLSCAASGRTFYYYARGWYRQAPGKERELVAAISSRGGSTYYADSVKGRFTISRDNAKNTVYLQMNSLKPEDTAVYYCAAERYFVLYRYYSYAYYYWGQGTQVTVSS | high polyreactivity
QVQLVESGGGLVQAGGSLRLSCAASGRTFYYYSMGWYIQAPGKEREFVAAISYRGGSTYYADSVKGRFTITRDNAKNTVYFQMNSLNPEDTAVYYCAAGLVYLFISHNDYWGQGTQVTVSS | low polyreactivity
QVQLVESGGGLVQAGGSLRLSCAASGRTFYYYTRGWYRQAPGKERELVAAISRRGGRTYYADSVKGRFTISRDNAKNTVYLQMNSLKPEDTAVYNCAKETPHCPGLGGYDYWGQGTQVTVSS | high polyreactivity
QVQLVESGGGLVQAGGSLRLSCAASGRTFYYYVKGWDRQAPGKERELVAAITIRGGSTYYADSVKGRFTNSRDNAKNTVYLQMNSLKPEDTAVYYCNARGGSSTYGNYYWGQGTQVTVSS | low polyreactivity
QVQLVESGGGLVQAGGSLRLSCAASGRTFYYYVMGWYIQAPGKERELVAAITLRGGSTYYADSVKGRFTISRDNAKNTVYLQMNSLKPEDTAVYYCNARGGSSTYGNYYWGQGTQVTVSS | low polyreactivity
QVQLVESGGGLVQAGGSLRLSCAASGRTIDHYAMGWYRQAPGKERELVAAISTTGGSTYYADSVKGRFTISRDNAKNTVYLQMNSLKPEDTAVYYCAAQLGWWGSGYWGQGTQVTVSS | high polyreactivity
QVQLVESGGGLVQAGGSLRLSCAASGRTIDSYAMGRNRQAPGKERELVAAISWGGGSTYYADSVKGRFTISRDNAKNTVYLQMNSLKPEDTAVYYCAARWNYTEFDYWGQGTQVTVSS | low polyreactivity
QVQLVESGGGLVQAGGSLRLSCAASGRTIGLNGMGWYRQAPGKERELVAGISLSGGSTNYADSVKGRFTISRDNAKNTVYLQMNSLKPEDTAVYYCAADFVYYVVNDFGWSYAYEYWGQGTQVTVSS | low polyreactivity
QVQLVESGGGLVQAGGSLRLSCAASGRTIGVYAMGWYRQAPGKERELVAGITTSGDSTYYADSVKGRFTISRDNAKNTVYLQMNSLKPEDTAVYYCNADVLFFYTPTSEYDYWGQGTQVTVSS | low polyreactivity
QVQLVESGGGLVQAGGSLRLSCAASGRTIGWYTMGWYRQERGKERELVAAISGRGGSTTYADSVKGRFTISRDNAKNTVYLQMNSLKPEDTAVYYCAKRRVRGTTRRYGYWGQGTQVTVSS | high polyreactivity
QVQLVESGGGLVQAGGSLRLSCAASGRTIGYYAMGWYRQAPGKERELVAAITWSGGNTYYADSVKGRFTISRDNAKNTVYLQMNSLKPEDTAVYYCNALYLWGMDYWGQGTQVTVSS | low polyreactivity
QVQLVESGGGLVQAGGSLRLSCAASGRTILGNAMGWYRQAPGKEREFVATISKTGGSTYYADSVKGRFTISRDNAKNTVYLQMISLKPEDTAVYYCAVEIVSYVYGWLVDYDYWGQGTQVTVSS | low polyreactivity
QVQLVESGGGLVQAGGSLRLSCAASGRTIPIYAMGWYRQAPGKERELVAAITRGGRTNYADSVKGRFTISRDNAKNTVYLQMNSLKPEDTAVYYCAARTYGTYLYAEYDYWGQGTQVTVSS | high polyreactivity
QVQLVESGGGLVQAGGSLRLSCAASGRTIRGNARGWYIQAPGKERELVAVNTASGSTTYADSVKGRFTISRDNAKNTVYLQMNSLKSEDTAVYYCAKYVPWYTLWLGGTDRDYWGQGTQVTVSS | low polyreactivity
QVQLVESGGGLVQAGGSLRLSCAASGRTIRHNAMGWYRQARGKERELVAAISRSGGSTYYADSVKGRFTISRDNAKNTVYLQMNSLKPEDTAVYYCAAGYHIIYTPEYYYWGQGTQVTVSS | high polyreactivity
QVQLVESGGGLVQAGGSLRLSCAASGRTIRRNARGWYRQAPGKERELVAGISGSGTITYADSVKGRVTISRDNAKNTVYLQMNSLKPEDTAVYYCAARRKSFYTFYYWGQGTKVTVSS | high polyreactivity
QVQLVESGGGLVQAGGSLRLSCAASGRTIRSYAMGWYSPAPGKERELVAAITGSGGRTYYADSVKGRFTISRDNATNTVYLQMNSLKPEDTAVYYCAARLRGSYDYWGQGTQVTVSS | high polyreactivity
QVQLVESGGGLVQAGGSLRLSCAASGRTIRWYAMGWYRQAPGKERELVAAITWIGGSTYYADSVKGRFTISRDNAKNTVYLQMNSLQPEDTAVYYCATDKDDVSDLGKDYAYFEYDYWGQGTQVTVSS | low polyreactivity
